For ten molecules, binding result and Kd results are on record in publication PMC4501837, “Mutational Dissection of Telomeric DNA Binding Requirements of G4 Resolvase 1 Shows that G4-Structure and Certain 3’-Tail Sequences Are Sufficient for Tight and Complete Binding”.

The target in data set [1] is T1, G4 Resolvase 1 (G4R1) (UniProt Q9H2U1 1-1008).
T1 sequence: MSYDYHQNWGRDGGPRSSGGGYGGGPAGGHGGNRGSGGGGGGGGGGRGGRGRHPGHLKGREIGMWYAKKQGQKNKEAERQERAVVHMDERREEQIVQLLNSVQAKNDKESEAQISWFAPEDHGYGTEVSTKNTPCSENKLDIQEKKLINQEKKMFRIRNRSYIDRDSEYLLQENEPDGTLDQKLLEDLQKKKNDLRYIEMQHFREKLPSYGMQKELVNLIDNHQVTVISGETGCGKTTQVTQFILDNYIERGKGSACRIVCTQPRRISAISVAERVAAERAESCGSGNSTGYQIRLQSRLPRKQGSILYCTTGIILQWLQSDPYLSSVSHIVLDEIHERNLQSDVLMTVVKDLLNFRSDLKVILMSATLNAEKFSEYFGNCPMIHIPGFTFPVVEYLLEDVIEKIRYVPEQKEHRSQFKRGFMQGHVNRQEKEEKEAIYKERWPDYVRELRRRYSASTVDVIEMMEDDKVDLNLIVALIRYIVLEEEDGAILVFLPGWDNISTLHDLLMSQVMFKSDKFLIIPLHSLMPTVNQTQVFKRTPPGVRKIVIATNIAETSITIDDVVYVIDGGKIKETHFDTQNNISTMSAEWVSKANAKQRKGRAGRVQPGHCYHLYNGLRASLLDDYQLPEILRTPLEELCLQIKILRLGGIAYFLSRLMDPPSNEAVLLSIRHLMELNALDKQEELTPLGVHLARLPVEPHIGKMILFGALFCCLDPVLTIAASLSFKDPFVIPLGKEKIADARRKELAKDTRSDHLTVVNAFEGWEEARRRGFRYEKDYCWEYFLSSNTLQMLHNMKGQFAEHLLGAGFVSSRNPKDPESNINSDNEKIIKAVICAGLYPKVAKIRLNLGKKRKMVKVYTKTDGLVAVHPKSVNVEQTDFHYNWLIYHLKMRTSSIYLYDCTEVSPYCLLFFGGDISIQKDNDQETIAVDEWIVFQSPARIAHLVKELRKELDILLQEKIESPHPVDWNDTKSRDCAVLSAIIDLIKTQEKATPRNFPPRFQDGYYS
Put plainly: EMSA; K+; 50 mM KCl, 10 mM NaCl (or 50 mM KCl or 50 mM NaCl alone), 3 mM MgCl2, 50 mM Tris acetate pH 7.8, 70 mM glycine, 0.012% bovine lactalbumin, 10% glycerol, 10 mM EDTA; 37 C, 0.5 or 24 h; 1 pM DNA, 10-500 pM G4R1; gel at 7 C. To be noted: protein: recombinant, label: 5'-32P, unimolecular G4, 3+1 in K+. Background: Mobility shift assays separate free from complexed probe on a gel.

For data set [2], the target named is T1, G4 Resolvase 1 (G4R1). Put plainly: EMSA; K+; similar to Tel33; 50 mM KCl, 10 mM NaCl (or 50 mM KCl or 50 mM NaCl alone), 3 mM MgCl2, 50 mM Tris acetate pH 7.8, 70 mM glycine, 0.012% bovine lactalbumin, 10% glycerol, 10 mM EDTA; 37 C, 0.5 or 24 h; 1 pM DNA, 10-500 pM G4R1; gel at 7 C. To be noted: protein: recombinant, label: 5'-32P.
Data set [3] addresses T1, G4 Resolvase 1 (G4R1). The data set can be described thus: EMSA; 50 mM KCl, K+-induced 3+1 G4, 24 h; apparent Kd, n=3; 50 mM KCl, 10 mM NaCl (or 50 mM KCl or 50 mM NaCl alone), 3 mM MgCl2, 50 mM Tris acetate pH 7.8, 70 mM glycine, 0.012% bovine lactalbumin, 10% glycerol, 10 mM EDTA; 37 C, 0.5 or 24 h; 1 pM DNA, 10-500 pM G4R1; gel at 7 C. To be noted: protein: recombinant; label: 5'-32P; unimolecular G4; 3+1 in K+, 2+2 basket in Na+.

Data set [4] has as its target T1, G4 Resolvase 1 (G4R1). Put plainly: EMSA; K+; negligible binding; 50 mM KCl, 10 mM NaCl (or 50 mM KCl or 50 mM NaCl alone), 3 mM MgCl2, 50 mM Tris acetate pH 7.8, 70 mM glycine, 0.012% bovine lactalbumin, 10% glycerol, 10 mM EDTA; 37 C, 0.5 or 24 h; 1 pM DNA, 10-500 pM G4R1; gel at 7 C. To be noted: protein: recombinant; label: 5'-32P; G4 ablated (CD).
Data set [5] deals with T1, G4 Resolvase 1 (G4R1). The data set can be described thus: EMSA; K+; complete binding restored; 50 mM KCl, 10 mM NaCl (or 50 mM KCl or 50 mM NaCl alone), 3 mM MgCl2, 50 mM Tris acetate pH 7.8, 70 mM glycine, 0.012% bovine lactalbumin, 10% glycerol, 10 mM EDTA; 37 C, 0.5 or 24 h; 1 pM DNA, 10-500 pM G4R1; gel at 7 C. The settings on record: protein: recombinant; label: 5'-32P; unimolecular G4, two tetrads expected.

Data set [6] deals with T1, G4 Resolvase 1 (G4R1). The data set can be described thus: EMSA; K+; significant binding restored; 50 mM KCl, 10 mM NaCl (or 50 mM KCl or 50 mM NaCl alone), 3 mM MgCl2, 50 mM Tris acetate pH 7.8, 70 mM glycine, 0.012% bovine lactalbumin, 10% glycerol, 10 mM EDTA; 37 C, 0.5 or 24 h; 1 pM DNA, 10-500 pM G4R1; gel at 7 C. To be noted: protein: recombinant; label: 5'-32P; unimolecular G4, two tetrads expected.

Data set [7] addresses T1, G4 Resolvase 1 (G4R1). The data set can be described thus: EMSA; K+; did not significantly bind; 50 mM KCl, 10 mM NaCl (or 50 mM KCl or 50 mM NaCl alone), 3 mM MgCl2, 50 mM Tris acetate pH 7.8, 70 mM glycine, 0.012% bovine lactalbumin, 10% glycerol, 10 mM EDTA; 37 C, 0.5 or 24 h; 1 pM DNA, 10-500 pM G4R1; gel at 7 C. The settings on record: protein: recombinant; label: 5'-32P; unimolecular G4, 3+1 in K+, at most 2 nt 3' tail.

Where [8] appears, read: unimolecular 5' G4 with about 11 nt 3' tail.

As to GGTTAGGGTTAGGGTTAGGGTTAGGGTTAG (structured_DNA) [Tel30], in data set [1], the binding result is on record as “binds”.

Turning to AGGGTTAGGGTTAGGGTTAGGGTTAGAATTTTT (structured_DNA) [Tel22-3'polyT-mutAGAA], in data set [2] (setting [8]), the binding result is on record as “binds”.

Take AGGGTTAGGGTTAGGGTTAGGGTTAAGATTTTT (structured_DNA) [Tel22-3'polyT-mutAAGA]: the binding result in data set [2] (setting [8]) is “binds”.

As for TTAGGGTTAGGGTTAGGGTTAGGGTTAGGGTTA (structured_DNA) [Tel33], the Kd in data set [3] was 0.01 ± 0.0019 nM.

In the case of TTAGAGTTAGGGTTAGGGTTAGGGTTAGAGTTA (ssDNA) [Tel33mut5-mutA], the binding result in data set [4] is “no binding”.

Regarding TTAGGGTTAGGGTTAGGGTTAGGGTTAGAGTTA (structured_DNA) [Tel33mut5], the binding result in data set [2] (unimolecular 5' G4 with 3' tail about 11 nt) was “binds”.

TTAGAGGTAGGGTTAGGGTTAGGGTTAGAGTTA (structured_DNA) [Tel33mut5-mutA-pos7G]: the binding result in data set [5] is reported as “binds”.

As to TTGGAGTTAGGGTTAGGGTTAGGGTTAGAGTTA (structured_DNA) [Tel33mut5-mutA-pos3G], the binding result in data set [6] is given as “binds”.

As for AGGGTTAGGGTTAGGGTTAGGG (structured_DNA) [Tel22], the binding result in data set [1] (no 3' tail) is “no binding”.

Consider TTAGGGTTAGGGTTAGGGTTAGGGTT (structured_DNA) [Tel26], for which, in data set [7], the binding result is reported as “no binding”.
